One assay deals with mdx mice. The experiment in a line: Transplantation of Wnt-treated mouse primary myoblasts into mdx mice. Type of assay: in vivo. The settings on record: treated zsGreen+ myoblasts; three weeks following transplantation; compared to Veh. As for the experimental part: In a clinical setting, freshly isolated satellite cells are often not readily available. Therefore, the effect of 3 h Wnt7a loading on cultured primary mouse myoblasts that were subsequently transplanted into injured muscles of immunosuppressed mdx mice (FIG. S5 A) was examined. After transplantation of 100,000 cells, the number of dystrophin-expressing myofibers was increased by 72% in muscles that were injected with Wnt7a treated myoblasts (FIG. 13B). […] In addition, the mean maximal cluster distance (dispersion) increased from 1.5 mm for Veh., to 2.0 mm for Wnt7a (FIG. 13D).
Transplantation of zsGreen-expressing satellite cells or myoblasts into mdx mice was performed as previously described (Bentzinger et al., 2013c). Before transplantation the cells were treated for 3 h with Wnt7a, Wnt5a, or Wnt3a (R&D Systems) at a concentration of 50 ng/mL for freshly isolated satellite cells or with 100 ng/mL for cultured cells. Myoblasts expressing tdTomato were transplanted into uninjured muscles of C57BL/6 mice that were implanted with an osmotic pump (Alzet) delivering FK506 (Sigma) at 2.5 mg/kg/day 3 days prior to the transplantations. In some experiments, the injection site was marked with blue fluorescent microspheres (2 μm, Life Technologies) that were added at a concentration of 1:100 (vol/vol) to the cell suspension. 10 μl of the cell-microsphere suspension was injected into the TA of each mouse using a Hamilton syringe.
Muscles frozen in liquid nitrogen were cut into 12 μm cross-sections. Cross-sections and cells were either fixed with ethanol (100%) or 2% PFA for 5 min, permeabilized with 0.1% Triton/0.1 M glycine/PBS for 10 min, blocked with 5% horse serum in PBS for several hours, and incubated with specific primary antibody in blocking buffer overnight at 4° C. Samples were subsequently washed with PBS and stained with appropriate fluorescently labeled secondary antibodies for 1 h at room temperature. After washing with PBS, samples were mounted with Permafluor (Fisher). Antibodies were as follows: chicken anti-GFP (Abcam, ab13970), mouse anti-Pax7 (DSHB), mouse anti-Dystrophin (7A10, DSHB), mouse anti-Rac1 (05-389, Millipore), mouse anti-Tubulin (Sigma, T9026), rabbit anti-Dvl2 (3224, Cell Signaling), rabbit anti-zsGreen (Clontech, 632474), rabbit anti-Laminin (Sigma, L9393), rabbit anti-HA (Millipore, 07-221).

In another assay the test system is mouse primary myoblasts. The assay can be described thus: Scratch migration assay, mouse primary myoblasts. Format: cell-based. As for the experimental part:
Cellular polarization is indicative of increased motility (de Forges et al., 2012). Scratch assays were used to test whether Wnt7a and Fzd7 polarization affect cell motility. To exclude effects on the localization of cells arising from altered rates of proliferation, cells were treated with Mitomycin-C.
Fzd7 deficient cells migrated 59% less compared to heterozygous myoblasts and expression of Fzd7-Flag in Fzd7 knockout myoblasts restored migration to normal levels (FIG. 2D). […] To investigate whether the stimulation of myoblast migration is dose dependent, different concentrations of Wnt7a and Wnt3a were tested for their effect on migration.
Following plasmid transfection or application of Wnts (R&D Systems), the cells were treated with Mitomycin-C for 2 h (50 μg/mL). Subsequently, the monolayer of cells was scraped in a straight line. The plates were then extensively washed with culture medium and incubated for 24 h before analysis. Analysis was performed using DAPI staining after matching the reference points and enumeration of DAPI-stained nuclei in the scar was performed. Unless otherwise indicated, Wnt7a and Wnt3a were used at a concentration of 100 ng/mL in scratch assays. Monodansylcadaverine (MDC, 30432, Sigma) was used in scratch assays at a concentration of 50 μm.

Another assay deals with β-catenin signaling. The assay can be described thus: TOP-flash luciferase reporter assay in C2C12 cells. Format: cell-based. The settings on record: different concentrations. How it is done: Different concentrations of Wnt7a were tested to exclude a dose dependent effect on β-catenin signaling, as measured by induction of TOP-flash activity in C2C12 cells.
The UBC-Fzd7-Flag (Fzd7-Flag), CMV-Fzd7-EYFP (Fzd7-YFP), CMV-Fzd3-EYFP (Fzd3-YFP), CMV-EYFP (YFP), CMV-EGFP-Rac1-wt (GFP-Rac1, 12980, Addgene), CMV-EGFP-Rac1-T17N (Rac1-DN, 12982, Addgene), CMV-EGFP-RhoA-T19N (RhoA-DN, 12967, Addgene) and CMV-EGFP-Cdc42-T17N (Cdc42-DN, 12976, Addgene) constructs have been described previously (Bentzinger et al., 2013a; Subauste et al., 2000; von Maltzahn et al., 2011). The Fzd7-tdtomato plasmid was generated by replacing the C-terminal YFP in Fzd7-YFP with tdTomato. For TOP-flash and FOP-flash the TCF reporter plasmid kit (17-285, Millipore) was used with the dual-luciferase reporter assay system (E1960, Promega). For normalization pGL4.74[hRluc/TK] (E6921, Promega) was cotransfected. For TOP-flash and FOP-flash assays the cells were transfected with GenJet lipofection reagent (SL100499, SignaGen). Otherwise, Lipofectamine 2000 (11668019, Life Technologies) was used for transfections.
A general note: In a reporter assay the amount or activity of a reporter protein is the signal.

Another assay deals with primary myoblasts. The experiment in a line: Proliferation of primary myoblasts over five days. Format: cell-based. The settings on record: 3 h exposure; various concentrations; over 5 days. As for the experimental part: The proliferation of primary myoblasts following a 3 h exposure to various concentrations of Wnt7a was analyzed to control for the effect being due to changes in the cell cycle status of the transplanted cells.

“Also recorded” adds a separate entry of the source.

B1: Wnt5a: Wnt protein (R&D Systems) used as comparison in myoblast transplantation (protein, UniProt P41221 62-380, looked up)
Protein Wnt-5a: IIGAQPLCSQLAGLSQGQKKLCHLYQDHMQYIGEGAKTGIKECQYQFRHRRWNCSTVDNTSVFGRVMQIGSRETAFTYAVSAAGVVNAMSRACREGELSTCGCSRAARPKDLPRDWLWGGCGDNIDYGYRFAKEFVDARERERIHAKGSYESARILMNLHNNEAGRRTVYNLADVACKCHGVSGSCSLKTCWLQLADFRKVGDALKEKYDSAAAMRLNSRGKLVQVNSRFNSPTTQDLVYIDPSPDYCVRNESTGSLGTQGRLCNKTSEGMDGCELMCCGRGYDQFKTVQTERCHCKFHWCCYVKCKKCTEIVDQFVCK
Consider B1, for which, in the assay with mdx mice, the “mean maximal cluster distance” value is given as “no difference; also recorded: Neither the number of dystrophin-expressing myofibers (FIG. 13E) nor the mean maximal cluster distance (FIG. 13F) was changed” and the “number of dystrophin-expressing myofibers” value was “no difference; also recorded: Neither the number of dystrophin-expressing myofibers (FIG. 13E) nor the mean maximal cluster distance (FIG. 13F) was changed”.

B2: Wnt3a: unrelated canonical Wnt protein (R&D Systems) used as comparison (protein, UniProt P56704 19-352, looked up)
Protein Wnt-3a: SYPIWWSLAVGPQYSSLGSQPILCASIPGLVPKQLRFCRNYVEIMPSVAEGIKIGIQECQHQFRGRRWNCTTVHDSLAIFGPVLDKATRESAFVHAIASAGVAFAVTRSCAEGTAAICGCSSRHQGSPGKGWKWGGCSEDIEFGGMVSREFADARENRPDARSAMNRHNNEAGRQAIASHMHLKCKCHGLSGSCEVKTCWWSQPDFRAIGDFLKDKYDSASEMVVEKHRESRGWVETLRPRYTYFKVPTERDLVYYEASPNFCEPNPETGSFGTRDRTCNVSSHGIDGCDLLCCGRGHNARAERRREKCRCVFHWCCYVSCQECTRVYDVHTCK
As for B2, the “dose dependency of myoblast migration” value in the assay on mouse primary myoblasts (different concentrations tested, mouse primary myoblasts) is “no significant effect at any concentration tested”. Also, in the assay on mouse primary myoblasts (primary mouse myoblasts, 100 ng/mL), the “stimulation of cell migration” value is “does not affect cell migration; also recorded: did not stimulate cell migration”. Besides, in the assay on β-catenin signaling, the TOP-flash reporter activity entry is recorded as “dose dependent increase; also recorded: dose dependent response”. Moreover, the “rate of proliferation of primary myoblasts” value in the assay on primary myoblasts is “reduced the proliferation of primary myoblasts”. In the assay on mdx mice, the “mean maximal cluster distance” value is “no difference; also recorded: Neither the number of dystrophin-expressing myofibers (FIG. 13E) nor the mean maximal cluster distance (FIG. 13F) was changed” and the “number of dystrophin-expressing myofibers” value is given as “no difference; also recorded: Neither the number of dystrophin-expressing myofibers (FIG. 13E) nor the mean maximal cluster distance (FIG. 13F) was changed”.

Source of the values: US20170087188A1, “WNT INDUCED MOTILITY AND ENHANCED ENGRAFTMENT OF CELLS” (OTTAWA HOSPITAL RESEARCH INSTITUTE, priority 2014, published 2017).
